Experimental findings from patent US20060257904A1 are described below.

The experiment has as its target human recombinant prion protein (hrPrP), amino acid residues 23-231 of human PrPC (human) (UniProt P04156). As to the kind of experiment: cell-based or functional assay.

Consider “α-2 macroglobulin (α2M), purified preparation”, for which the protection of PrP from PK degradation is 4 µg; the protection of PrP from PK degradation in a mixture with tubulin stood at 16 µg; the protection of PrP from PK proteolysis (immunoblot with mAb 34C9) came to 5 µg; the protection of rhuPrP from PK degradation, dose dependence is above 6 µg.
